The subject of data set [1] is TcbA (native, from W-14 broth).
Data set [2] concerns the target T1, TcbAiii (Photorhabdus luminescens strain W-14).
T1 construct: Processed peptide of TcbA; also detected in E. coli preparations expressing tcbA constructs; also called B2; 58 kDa peptide of toxin B
T1 chain: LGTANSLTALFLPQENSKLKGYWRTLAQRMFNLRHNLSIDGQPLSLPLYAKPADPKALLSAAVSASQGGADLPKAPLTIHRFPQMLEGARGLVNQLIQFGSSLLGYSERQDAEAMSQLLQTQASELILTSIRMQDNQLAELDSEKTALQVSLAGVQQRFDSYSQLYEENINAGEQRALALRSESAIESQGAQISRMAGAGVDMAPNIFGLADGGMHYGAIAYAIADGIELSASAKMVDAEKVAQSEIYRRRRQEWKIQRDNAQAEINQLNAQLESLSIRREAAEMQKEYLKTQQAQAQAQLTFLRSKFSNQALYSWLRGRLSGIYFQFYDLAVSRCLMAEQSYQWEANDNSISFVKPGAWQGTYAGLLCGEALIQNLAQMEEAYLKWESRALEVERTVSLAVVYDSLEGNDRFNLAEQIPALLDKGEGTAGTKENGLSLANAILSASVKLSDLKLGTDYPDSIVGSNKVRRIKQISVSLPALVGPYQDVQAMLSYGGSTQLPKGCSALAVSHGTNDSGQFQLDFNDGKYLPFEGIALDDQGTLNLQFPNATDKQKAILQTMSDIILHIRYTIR
Put plainly: native PAGE (one major band), gel filtration 860 kDa, same molar concentration. Background: In gel filtration, larger molecules generally elute earlier.

Data set [3] deals with T2, TcdAiii (Photorhabdus luminescens strain W-14).
T2 construct: Processed peptide of TcdA; also called A2
T2 chain: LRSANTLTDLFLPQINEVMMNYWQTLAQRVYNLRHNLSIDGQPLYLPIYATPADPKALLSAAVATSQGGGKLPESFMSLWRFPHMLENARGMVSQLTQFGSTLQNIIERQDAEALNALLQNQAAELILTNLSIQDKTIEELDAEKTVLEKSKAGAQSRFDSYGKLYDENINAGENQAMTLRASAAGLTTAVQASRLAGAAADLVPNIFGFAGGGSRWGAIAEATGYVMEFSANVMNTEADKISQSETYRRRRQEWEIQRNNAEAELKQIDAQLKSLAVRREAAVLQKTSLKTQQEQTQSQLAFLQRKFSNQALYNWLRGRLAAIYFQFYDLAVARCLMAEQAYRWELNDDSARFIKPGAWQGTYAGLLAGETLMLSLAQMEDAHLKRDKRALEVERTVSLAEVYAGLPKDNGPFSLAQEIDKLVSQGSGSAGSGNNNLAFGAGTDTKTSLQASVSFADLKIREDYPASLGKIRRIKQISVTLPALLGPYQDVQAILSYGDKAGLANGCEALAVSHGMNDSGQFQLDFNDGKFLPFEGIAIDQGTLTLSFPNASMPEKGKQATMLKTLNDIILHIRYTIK
Put plainly: native PAGE (one major band), gel filtration 860 kDa, 1 to 1 molar ratio by densitometry.

Regarding “38 kDa W-14 Photorhabdus metalloprotease”, in data set [1], the TcbA (% of total protein) after 38 kDa protease treatment (control 58) (% of total protein) is 18; the “cleavage of TcbA followed by SDS-PAGE densitometry” value was “the amount of peptides TcbAii and TcbAiii increased about 3-fold while the amount of TcbA peptide decreased proportionally”. Turning to “58 kDa W-14 Photorhabdus metalloprotease”, the “cleavage of TcbA followed by SDS-PAGE densitometry” value in data set [1] was “the amount of peptides TcbAii and TcbAiii increased about 3-fold while the amount of TcbA peptide decreased proportionally”.

B1: TcbAii (other)
chain: FIQGYSDLFGNRADNYAAPGSVASMFSPAAYLTELYREAKNLHDSSSIYYLDKRRPDLASLMLSQKNMDEEISTLALSNELCLAGIETKTGKSQDEVMDMLSTYRLSGETPYHHAYETVREIVHERDPGFRHLSQAPIVAAKLDPVTLLGISSHISPELYNLLIEEIPEKDEAALDTLYKTNFGDITTAQLMSPSYLARYYGVSPEDIAYVTTSLSHVGYSSDILVIPLVDGVGKMEVVRVTRTPSDNYTSQTNYIELYPQGGDNYLIKYNLSNSFGLDDFYLQYKDGSADWTEIAHNPYPDMVINQKYESQATIKRSDSDNILSIGLQRWHSGSYNFAAANFKIDQYSPKAFLLKMNKAIRLLKATGLSFATLERIVDSVNSTKSITVEVLNKVYRVKFYIDRYGISEETAAILANINISQQAVGNQLSQFEQLFNHPPLNGIRYEISEDNSKHLPNPDLNLKPDSTGDDQRKAVLKRAFQVNASELYQMLLITDRKEDGVIKNNLENLSDLYLVSLLAQIHNLTIAELNILLVICGYGDTNIYQITDDNLAKIVETLLWITQWLKTQKWTVTDLFLMTTATYSTTLTPEISNLTATLSSTLHGKESLIGEDLKRAMAPCFTSALHLTSQEVAYDLLLWIDQIQPAQITVDGFWEEVQTTPTSLKVITFAQVLAQLSLIYRRIGLSETELSLIVTQSSLLVAGKSILDHGLLTLMALEGFHTWVNGLGQHASLILAALKDGALTVTDVAQAMNKEESLLQMAANQVEKDLTKLTSWTQIDAILQWLQMSSALAVSPLDLAGMMALKYGIDHNYAAWQAAAAALMADHANQAQKKLDETFSKALCNYYINAVVDSAAGVRDRNGLYTYLLIDNQVSADVITSRIAEAIAGIQLYVNRALNRDEGQLASDVSTRQFFTDWERYNKRYSTWAGVSELVYYPENYVDPTQRIGQTKMMDALLQSINQSQLNADTVEDAFKTYLTSFEQVANLKVISAYHDNVNVDQGLTYFIGIDQAAPGTYYWRSVDHSKCENGKFAANAWGEWNKITCAVNPWKNIIRPVVYMSRLYLLWLEQQSKKSDDGKTTIYQYNLKLAHIRYDGSWNTPFTFDVTEKVKNYTSSTDAAESLGLYCTGYQGEDTLLVMFYSMQSSYSSYTDNNAPVTGLYIFADMSSDNMTNAQATNYWNNSYPQFDTVMADPDSDNKKVITRRVNNRYAEDYEIPSSVTSNSNYSWGDHSLTMLYGGSVPNITFESAAEDLRLSTNMALSIIHNGYAGTRRIQCNLMKQYASLGDKFIIYDSSFDDANRFNLVPLFKFGKDENSDDSICIYNENPSSEDKKWYFSSKDDNKTADYNGGTQCIDAGTSNKDFYYNLQEIEVISVTGGYWSSYKISNPININTGIDSAKVKVTVKAGGDDQIFTADNSTYVPQQPAPSFEEMIYQFNNLTIDCKNLNFIDNQAHIEIDFTATAQDGRFLGAETFIIPVTKKVLGTENVIALYSENNGVQYMQIGAYRTRLNTLFAQQLVSRANRGIDAVLSMETQNIQEPQLGAGTYVQLVLDKYDESIHGTNKSFAIEYVDIFKENDSFVIYQGELSETSQTVVKVFLSYFIEATGNKNHLWVRAKYQKETTDKILFDRTDEKDPHGWFLSDDHKTFSGLSSAQALKNDSEPMDFSGANALYFWELFYYTPMMMAHRLLQEQNFDAANHWFRYVWSPSGYIVDGKIAIYHWNVRPLEEDTSWNAQQLDSTDPDAVAQDDPMHYKVATFMATLDLLMARGDAAYRQLERDTLAEAKMWYTQALNLLGDEPQVMLSTTWANPTLGNAASKTTQQVRQQVLTQLRLNSRVKTPL
notes: Processed peptide of TcbA; also called B1; 201 kDa peptide
For B1, the binding result in data set [2] was “binds”.

B2: TcdAii (other)
chain: LIGYNNQFSGRASQYVAPGTVSSMFSPAAYLTELYREARNLHASDSVYYLDTRRPDLKSMALSQQNMDIELSTLSLSNELLLESIKTESKLENYTKVMEMLSTFRPSGATPYHDAYENVREVIQLQDPGLEQLNASPAIAGLMHQASLLGINASISPELFNILTEEITEGNAEELYKKNFGNIEPASLAMPEYLKRYYNLSDEELSQFIGKASNFGQQEYSNNQLITPVVNSSDGTVKVYRITREYTTNAYQMDVELFPFGGENYRLDYKFKNFYNASYLSIKLNDKRELVRTEGAPQVNIEYSANITLNTADISQPFEIGLTRVLPSGSWAYAAAKFTVEEYNQYSFLLKLNKAIRLSRATELSPTILEGIVRSVNLQLDINTDVLGKVFLTKYYMQRYAIHAETALILCNAPISQRSYDNQPSQFDRLFNTPLLNGQYFSTGDEEIDLNSGSTGDWRKTILKRAFNIDDVSLFRLLKITDHDNKDGKIKNNLKNLSNLYIGKLLADIHQLTIDELDLLLIAVGEGKTNLSAISDKQLATLIRKLNTITSWLHTQKWSVFQLFIMTSTSYNKTLTPEIKNLLDTVYHGLQGFDKDKADLLHVMAPYIAATLQLSSENVAHSVLLWADKLQPGDGAMTAEKFWDWLNTKYTPGSSEAVETQEHIVQYCQALAQLEMVYHSTGINENAFRLFVTKPEMFGAATGAAPAHDALSLIMLTRFADWVNALGEKASSVLAAFEANSLTAEQLADAMNLDANLLLQASIQAQNHQHLPPVTPENAFSCWTSINTILQWVNVAQQLNVAPQGVSALVGLDYIQSMKETPTYAQWENAAGVLTAGLNSQQANTLHAFLDESRSAALSTYYIRQVAKAAAAIKSRDDLYQYLLIDNQVSAAIKTTRIAEAIASIQLYVNRALENVEENANSGVISRQFFIDWDKYNKRYSTWAGVSQLVYYPENYIDPTMRIGQTKMMDALLQSVSQSQLNADTVEDAFMSYLTSFEQVANLKVISAYHDNINNDQGLTYFIGLSETDAGEYYWRSVDHSKFNDGKFAANAWSEWHKIDCPINPYKSTIRPVIYKSRLYLLWLEQKEITKQTGNSKDGYQTETDYRYELKLAHIRYDGTWNTPITFDVNKKISELKLEKNRAPGLYCAGYQGEDTLLVMFYNQQDTLDSYKNASMQGLYIFADMASKDMTPEQSNVYRDNSYQQFDTNNVRRVNNRYAEDYEIPSSVSSRKDYGWGDYYLSMVYNGDIPTINYKAASSDLKIYISPKLRIIHNGYEGQKRNQCNLMNKYGKLGDKFIVYTSLGVNPNNSSNKLMFYPVYQYSGNTSGLNQGRLLFHRDTTYPSKVEAWIPGAKRSLTNQNAAIGDDYATDSLNKPDDLKQYIFMTDSKGTATDVSGPVEINTAISPAKVQIIVKAGGKEQTFTADKDVSIQPSPSFDEMNYQFNALEIDGSGLNFINNSASIDVTFTAFAEDGRKLGYESFSIPVTLKVSTDNALTLHHNENGAQYMQWQSYRTRLNTLFARQLVARATTGIDTILSMETQNIQEPQLGKGFYATFVIPPYNLSTHGDERWFKLYIKHVVDNNSHIIYSGQLTDTNINITLFIPLDDVPLNQDYHAKVYMTFKKSPSDGTWWGPHFVRDDKGIVTINPKSILTHFESVNVLNNISSEPMDFSGANSLYFWELFYYTPMLVAQRLLHEQNFDEANRWLKYVWSPSGYIVHGQIQNYQWNVRPLLEDTSWNSDPLDSVDPDAVAQHDPMHYKVSTFMRTLDLLIARGDHAYRQLERDTLNEAKMWYMQALHLLGDKPYLPLSTTWSDPRLDRAADITTQNAHDSAIVALRQNIPTPAPLS
notes: Processed peptide of TcdA; also called A1
In the case of B2, in data set [3], the binding result was “binds”.

For the origin of these results see patent US7569748 (WISCONSIN ALUMNI RESEARCH FOUNDATION, dated 2009).
